Experimental data published in FireProtDB (doi:10.1111/j.1432-1033.1994.tb18664.x).

B1: Ribonuclease HI, P0A7Y4 (parent)
chain: MLKQVEIFTDGSCLGNPGPGGYGAILRYRGREKTFSAGYTRTTNNRMELMAAIVALEALKEHCEVILSTDSQYVRQGITQWIHNWKKRGWKTADKKPVKNVDLWQRLDAALGQHQIKWEWVKGHAGHPENERCDELARAAAMNPTLEDTGYQVEV

Variants of: B1
Conditions: Escherichia coli (strain K12), Thermal, CD, NaCl 0.1 M, reversible: yes, structure 2RN2, whole UniProt chain shown
[1] = pH 5.5, 53.1 °C, Sodium acetate 20 mM

**Q.** For D134V, which “ddG of mutation (higher = less stable)” value (pH 3, 50 °C, glycine-HCl 10 mM) is on record?
**A.** -0.31 kcal/mol

**Q.** What about the Tm (pH 3, glycine-HCl 10 mM) of the same variant?
**A.** 51.1 °C

**Q.** What about the “change of melting temperature, mutant - wild type (higher = more stable)” value (“change of melting temperature, mutant” below) (pH 3, glycine-HCl 10 mM) of the same variant?
**A.** 1.1 °C

**Q.** And the “unfolding enthalpy (van 't Hoff)” value (pH 3, glycine-HCl 10 mM)?
**A.** 107 kcal/mol

**Q.** What about the “ddG of mutation (higher = less stable)” value [1] of the same variant?
**A.** -1.12 kcal/mol

**Q.** What about the Tm (pH 5.5, Sodium acetate 20 mM) of the same variant?
**A.** 57.2 °C

**Q.** And the “change of melting temperature, mutant” value (pH 5.5, Sodium acetate 20 mM)?
**A.** 4.1 °C

**Q.** And the “unfolding enthalpy (van 't Hoff)” value (pH 5.5, Sodium acetate 20 mM)?
**A.** 99 kcal/mol

**Q.** What does the source list for D134N?
**A.** ddG of mutation (higher = less stable) (pH 3, 50 °C, glycine-HCl 10 mM): 0.1 kcal/mol; Tm (pH 3, glycine-HCl 10 mM): 49.7 °C; change of melting temperature, mutant - wild type (higher = more stable) (pH 3, glycine-HCl 10 mM): -0.3 °C; unfolding enthalpy (van 't Hoff) (pH 3, glycine-HCl 10 mM): 110 kcal/mol; Tm (pH 5.5, Sodium acetate 20 mM): 56.3 °C; change of melting temperature, mutant - wild type (higher = more stable) (pH 5.5, Sodium acetate 20 mM): 3.2 °C; unfolding enthalpy (van 't Hoff) (pH 5.5, Sodium acetate 20 mM): 96.9 kcal/mol

**Q.** With D134H as the variant, how does the “ddG of mutation (higher = less stable)” value (pH 3, 50 °C, glycine-HCl 10 mM) read?
**A.** -0.53 kcal/mol

**Q.** And the Tm (pH 3, glycine-HCl 10 mM)?
**A.** 51.7 °C

**Q.** And the “change of melting temperature, mutant” value (pH 3, glycine-HCl 10 mM)?
**A.** 1.7 °C

**Q.** And the “unfolding enthalpy (van 't Hoff)” value (pH 3, glycine-HCl 10 mM)?
**A.** 106 kcal/mol

**Q.** And the “ddG of mutation (higher = less stable)” value [1]?
**A.** -1.94 kcal/mol

**Q.** Which “ddG of mutation (higher = less stable)” value (pH 3, 50 °C, glycine-HCl 10 mM) does the source give for D134I here?
**A.** -0.69 kcal/mol

**Q.** And the Tm (pH 3, glycine-HCl 10 mM)?
**A.** 52.3 °C

**Q.** What about the “change of melting temperature, mutant” value (pH 3, glycine-HCl 10 mM) of the same variant?
**A.** 2.3 °C

**Q.** What about the “unfolding enthalpy (van 't Hoff)” value (pH 3, glycine-HCl 10 mM) of the same variant?
**A.** 105 kcal/mol

**Q.** What about the “ddG of mutation (higher = less stable)” value [1] of the same variant?
**A.** -1.27 kcal/mol

**Q.** What about the Tm (pH 5.5, Sodium acetate 20 mM) of the same variant?
**A.** 57.7 °C

**Q.** And the “change of melting temperature, mutant” value (pH 5.5, Sodium acetate 20 mM)?
**A.** 4.6 °C

**Q.** And the “unfolding enthalpy (van 't Hoff)” value (pH 5.5, Sodium acetate 20 mM)?
**A.** 101 kcal/mol

**Q.** With D134E as the variant, how does the “ddG of mutation (higher = less stable)” value (pH 3, 50 °C, glycine-HCl 10 mM) read?
**A.** -0.72 kcal/mol

**Q.** What about the Tm (pH 3, glycine-HCl 10 mM) of the same variant?
**A.** 52.4 °C

**Q.** What about the “change of melting temperature, mutant” value (pH 3, glycine-HCl 10 mM) of the same variant?
**A.** 2.4 °C

**Q.** And the “unfolding enthalpy (van 't Hoff)” value (pH 3, glycine-HCl 10 mM)?
**A.** 108 kcal/mol

**Q.** And the “ddG of mutation (higher = less stable)” value [1]?
**A.** -0.86 kcal/mol

**Q.** And the Tm (pH 5.5, Sodium acetate 20 mM)?
**A.** 56.2 °C

**Q.** And the “change of melting temperature, mutant” value (pH 5.5, Sodium acetate 20 mM)?
**A.** 3.1 °C

**Q.** What about the “unfolding enthalpy (van 't Hoff)” value (pH 5.5, Sodium acetate 20 mM) of the same variant?
**A.** 102 kcal/mol

**Q.** With D134L as the variant, how does the “ddG of mutation (higher = less stable)” value (pH 3, 50 °C, glycine-HCl 10 mM) read?
**A.** -1.15 kcal/mol

**Q.** And the Tm (pH 3, glycine-HCl 10 mM)?
**A.** 53.8 °C

**Q.** And the “change of melting temperature, mutant” value (pH 3, glycine-HCl 10 mM)?
**A.** 3.8 °C

**Q.** What about the “unfolding enthalpy (van 't Hoff)” value (pH 3, glycine-HCl 10 mM) of the same variant?
**A.** 118 kcal/mol

**Q.** And the “ddG of mutation (higher = less stable)” value [1]?
**A.** -1.51 kcal/mol

**Q.** What about the Tm (pH 5.5, Sodium acetate 20 mM) of the same variant?
**A.** 58.6 °C

**Q.** And the “change of melting temperature, mutant” value (pH 5.5, Sodium acetate 20 mM)?
**A.** 5.5 °C

**Q.** What about the “unfolding enthalpy (van 't Hoff)” value (pH 5.5, Sodium acetate 20 mM) of the same variant?
**A.** 96.4 kcal/mol

**Q.** With D134Q as the variant, how does the “ddG of mutation (higher = less stable)” value (pH 3, 50 °C, glycine-HCl 10 mM) read?
**A.** -0.48 kcal/mol

**Q.** And the Tm (pH 3, glycine-HCl 10 mM)?
**A.** 51.6 °C

**Q.** What about the “change of melting temperature, mutant” value (pH 3, glycine-HCl 10 mM) of the same variant?
**A.** 1.6 °C

**Q.** What about the “unfolding enthalpy (van 't Hoff)” value (pH 3, glycine-HCl 10 mM) of the same variant?
**A.** 114 kcal/mol

**Q.** And the “ddG of mutation (higher = less stable)” value [1]?
**A.** -1.32 kcal/mol

**Q.** And the Tm (pH 5.5, Sodium acetate 20 mM)?
**A.** 57.9 °C

**Q.** And the “change of melting temperature, mutant” value (pH 5.5, Sodium acetate 20 mM)?
**A.** 4.8 °C

**Q.** What about the “unfolding enthalpy (van 't Hoff)” value (pH 5.5, Sodium acetate 20 mM) of the same variant?
**A.** 96.9 kcal/mol

**Q.** With D134S as the variant, how does the “ddG of mutation (higher = less stable)” value (pH 3, 50 °C, glycine-HCl 10 mM) read?
**A.** -0.26 kcal/mol

**Q.** And the Tm (pH 3, glycine-HCl 10 mM)?
**A.** 50.9 °C

**Q.** And the “change of melting temperature, mutant” value (pH 3, glycine-HCl 10 mM)?
**A.** 0.9 °C

**Q.** What about the “unfolding enthalpy (van 't Hoff)” value (pH 3, glycine-HCl 10 mM) of the same variant?
**A.** 106 kcal/mol

**Q.** What about the “ddG of mutation (higher = less stable)” value [1] of the same variant?
**A.** -1.08 kcal/mol

**Q.** Which “ddG of mutation (higher = less stable)” value (pH 3, 50 °C, glycine-HCl 10 mM) does the source give for D134A here?
**A.** -0.89 kcal/mol

**Q.** And the “ddG of mutation (higher = less stable)” value [1]?
**A.** -1.51 kcal/mol

**Q.** What about the Tm (pH 5.5, Sodium acetate 20 mM) of the same variant?
**A.** 58.6 °C

**Q.** And the “change of melting temperature, mutant” value (pH 5.5, Sodium acetate 20 mM)?
**A.** 5.5 °C

**Q.** And the “unfolding enthalpy (van 't Hoff)” value (pH 5.5, Sodium acetate 20 mM)?
**A.** 118 kcal/mol

**Q.** Which results are given for D134T?
**A.** ddG of mutation (higher = less stable) (pH 3, 50 °C, glycine-HCl 10 mM): -0.12 kcal/mol; Tm (pH 3, glycine-HCl 10 mM): 50.4 °C; change of melting temperature, mutant - wild type (higher = more stable) (pH 3, glycine-HCl 10 mM): 0.4 °C; unfolding enthalpy (van 't Hoff) (pH 3, glycine-HCl 10 mM): 107 kcal/mol; Tm (pH 5.5, Sodium acetate 20 mM): 57 °C; change of melting temperature, mutant - wild type (higher = more stable) (pH 5.5, Sodium acetate 20 mM): 3.9 °C; unfolding enthalpy (van 't Hoff) (pH 5.5, Sodium acetate 20 mM): 90.2 kcal/mol
